Results as given in US20160215055A1 (PROMIS NEUROSCIENCES, published 2016).
Ends that are not written are not given here.

Molecular target: T1, FasR epitope peptide LHHDGQFCH (human FasR residues 52-60) (human, also: coupled to BSA, linkage not given here)
T1 construct: Coated as BSA-peptide at 100 ng/well; The immunogens were KLH-Cys-X and OVA-Cys-X; also called BSA-specific peptide
T1 peptide: LHHDGQFCH
Experiment: ELISA, BSA-peptide coated on plates

B1: AMF-3a-118 (antibody, V domains shown)
VH: QSVEESGGRLVTPGTPLTLTCKASGFSLSDSRVSWVRQAPGKGLEWIGIVGIGWNIYHANWAKGRFTISKTSSTTVDLKITSPTVEDTATYFCARGLGGGTVIWGPGTLVTVSL
VL: AQVLTQTPASVSAAVGGTVTISCQSSESVYKNNYLSWFQQKPGQPPKLLIYEASKLASGVSTRFKGSGSGTQFTLTISGVQCDDAATYYCLGEFSCYSGDCGTFGGGTAVVVKG
notes: Recombinant rabbit monoclonal IgG (RabMAb) expressed in HEK-293-6E cells
- binding result: binds
